Measured values published in a protein production outcome set (Wang et al. 2014).

Assay: label from the status in PepcDB records

Sequence	protein production
MIMKKYWKLMLMAVGMSAAFTLASCNDDKDVVIDQIYYISTDPSATTYPTTFSVSLVDNSVAGRPFFYVVGKSTMRVDRNTTLRVEEDSKLVEKYNETYGKKYLPFPEGTYSFSTNEVTINQGDNFSSDTIFISFSNWDKLSKIDKYLLPVSLKAVDDKGAVSMDRNLIYFIADFSTTNTGYNKPAAWKPLDRTDWDVSFSYAYGYDEAQFGGRLAVDGDVSTTWFTWGVVSAGECWWATTLPAPTHLTGFSLTRQTTFGSSYNVREAKVKVKKEGDTEWTEAGLFRFGSFKGNDPQYAVFIPAVENVKEFRIDIVSPADFTGFAELDLYQ	failed
MIMLNKQGITISLCMIVRDEEETIARCLETVEKIVDEIIVVDTGSVDRTKEIVEKYTSNIYDFQWIDDFAAARNFSFSKATQEYILWLDADDVLLEDAQEALKLLKRELDPKIDAVSMPYHLAMDSNGKPLYCTKRNRLVKREKQFQWFGKVHEYLAISGEVFSSNVAITHKKEKKVTNRNLKIFQNTVAAGEELSPRDLFYYANESTDNQKYDDAVLLYETFLNQDEGWYEEKIYACGKLGDCYAKLGMWEKAIESCVKSFRYDVPRGENCTRIGYIYMEQEKYNEAIFWFKLATEVPMATESPFHSPASYTWLPYLQMCICYSRLGEQDKAYYYNELAASYVPNNAAIEYNRKYFRGVFDKPYKV	failed
MIMNTKERSLLGSWIIWSVAYYMYYPFISIYLSRFVEESKLSLFFVVFQAVSLPLPLIGARLSKRNRILPIIIGMLVGGIGMIMLPFSRNILEATIFMSLNYFISLSLPSYYSLMSEVGEGTITRIWSLSILPSIIMPSLGGLLAQYFGLRLLFMIGGIVLATSFLPMVNSSYNSSSQSLLNFNITIRSFLPAILILPIAMEFPYIYLVVYNYFHLTKEYVGIIATSAEILGMLLTYLASKLIFRKKYLLSLSLFLFSLTSLYFLSPTIAIFFGCWEVIVPLTLEYFSSRKTVYDFALITTMQGLGWVLGYLIDYFIPNISLLLLSSSLIAFLLALMIVFTKD	failed
MIMVSGCQQQKEETPFYYGTWDEGRAPGPTDGVKSATVTFTEDEVVETEVMEGRGEVQLPFMAYKVISQSTDGSIEIQYLGPYYPLKSTLKRGENGTLIWEQNGQRKTMTRIESKTGREEKDEKSKSLEHHHHHH	not failed
MINAISPFQVQNTQNTQNATNQVNNSQKTDSSNQTSFSELLKNSISSLNESQVASDNMTNALAAGKDVNLDEVMIAAQKASISLTAATEFRNKAVEAYQEIMRMQM	not failed
MINEIGHYVLVLALGVGLIVSTLPVIGARRNDRALMDVASLGSVLMFLLVGFSFAALTHAYAVSDFSVRNVWENSHSLMPMLYKLTGVWGNHEGSMLLWLLILVFFSALVAAFGGNLPETLKANVLAVQAWISVAFLLFILLTSNPFLRLERVPAEGQDLNPILQDFGLAIHPPLLYLGYVGFSVCFSFAVAALLEGRIDAAWARWVRPWTLAAWTFLTAGISMGSYWAYYELGWGGWWFWDPVENASFMPWLAGTALLHSALVMEKREALKIWTVLLAIMTFSLSLLGTFLVRSGVLTSVHAFATDPSRGIFILGILTIFIGGAFALFAWRAPSLKAGGLFAPISREGALVLNNLILTVSTATVLIGTLYPLILETLTGEKISVGAPFFNLTFGLLMIPVLIVTPFGPMLAWKRGDLLGAFQRLYVAAAIAALAGLTLWYIENGGPVLAALGIAAGFWLIFGALTDLWYRANFGKLAFGIAFRRLKGLPRSAFGTALAHMGLGITVLGIVIVTTYETETVLEMKQGTVAEAGGYSLTFDGIRHAVGPNFTEDRGHFTVRKAGVEVADVWSSKRLYTARRMPTTEAGILTFGLSQLYVSLGDPMADGGMVVRIWWKPFILCIWGGTLFMMAGGFISLSDRRLRVGAPTRKAKPVRAAMPEAAE	failed
MINIVIPMAGAGSRFAQAGYKKPKPFIDVLGRPMICHVLDNLNMPDARFILLTRKEHFENEQETVNWIKSKYNVEFVLIDNLTEGAACTVLHAHKLIDNNTPLLIANSDQIVDMNIAEFINDSENRNLDGSVLCFKDHDTKWSYAKIDGEGLITEIREKVVISEFATVGIYYFAKGGFFVKNAIDMIIRNERVKNEFYVAPVYNFGIQEGLKFGIFNININQMHGIGTPTDLNVYIDLVQRNKLEHHHHHH	not failed
MINLAVLGLYLLIGFILKRTGKCPENSAQVLNLYVIYAALPGVIFSKVPALEFSTDLLIPVVIPWVLLAFSAVFIWLLGRAFKWPREVVGALLICVPLGNTSFFGFPMIEAFYGSDAIVYGLLYDQFGSFFGLAIYSTIVIALYREQDNKPTVASVTRQIVTFPPFIALIIALLTKSLVYPEVFQRLIDSLAVTLVPVIMIAVGFQLKFRLPKGSKTPLTIGLLTKLVLMPLITVGLLYGFGFDSTLVQVTIFESAMPPMITAGAVAIMAGLAPRLSAAMVGYGILFAFVSLPIVYQLLQLLSAH	failed
MINQRMIHMKNTKLLLAIATSAALLTGCQNTHGIDTNMAISSGLNAYKAATLSDADAKAIANQGCAEMDSGNQVASKSSKYGKRLAKIAKALGNNINGTPVNYKVYMTSDVNAWAMANGCVRVYSGLMDMMNDNEIEGVLGHELGHVALGHSLAEMKASYAIVAARDAISATSGVASQLSRSQLGDIAEGAINAKYSRDKESEADDFSFDLLKKRGISTQGLVGSFETLASLDGGRTQSMFDSHPPSTERAQHIRDRIASGKLEHHHHHH	failed
MINRDFIISFIVVTCIIYLIYVCYGKYLEKKQIYLKTLTIFLIIEVLRRIFIYGKVNNRLISGLSFIQLIFLGISVAMYGLMYFKNNLS	failed
MINRVPTNIITGFLGVGKTTAILHLLATKPAHEKWAVLVNEFGEIGIDGAIMSEQGAMIKEVPGGCLCCTAGVPMSVGINALLRQKPDRLIIEPTGLGHPKQVVATLISEQYQPYVDLKATIALMDPRHLSMDKYRSNQNFNDQLASADIVLGNKVDQCSSSDIDAFNDWVTDQTPAKTFSQLIKQGQFPIELLDMPRLVGHASTHIDSHHHHHAADEPQFQLAPQQPFLRKENRGQGYFSCGWLFGAEYQFNFDLLFQLLNDLTAERVKGVLNTDRGCYAFNVANGVVSVTEMSLDGFESRLEVIDSQLMPWSELESILLKIAGIPQALEHHHHHH	failed
MINSGTLITKIEELQSTLAKMDIALGTVDEAIVWTDGTGQIQWCNTAFDHLMGKLHILILGKNLVELLPLHRNSQPLEVSHHPFTIIVATQQKFTDHYEFNQNGKWLHLEIMTSPLMNAQGAVLVIRDISDRHLQEQTLQQLNENLEKRVLERTQAVSLIN	failed
MIPDELKHYLTDDWYAVVREHKLLELPAKVTVQQISEQYLAHKKSVKSTSASKEVAINDVLDGIVEYFNVMLGSQLLYKFERTQYADVMQKHPDTPLSELYGSFHLLRLFVRLGSMLSYSALDQQSMQNLLTHVQDFLKFLVKNSSIFFSMSNFINVDPEYVRNAQ	failed
MIPEIAGLPALEWTSSAGHASYDEAEATLTLAAASGVDWTNDSLGGEPQHGATALGFRAPAAFSLSARVLVASPRTTFDAGVLTLWADSDHWAKLCFEYSPQGEAMVVSVVTNGYSDDSNGPVVTAPWVYLRVSRVGPAWAFHSSTDGRDWSLVRLFRLDTEKPVHVGFMSQAPMGDGCEARFDAIELKEEPPAELRDGS	failed
MIPFKDITLADRDTITAFTMKSDRRNCDLSFSNLCSWRFLYDTQFAVIDDFLVFKFWAGEQLAYMMPVGNGDLKAVLRKLIEDADKEKHNFCMLGVCSNMRADLEAILPERFIFTEDRAYADYIYLRSDLATLKGKKFQAKRNHINRFRNTYPDYEYTPITPDRIQECLDLEAEWCKVNNCDQQEGTGNERRALIYALHNFEALGLTGGILHVNGKIVAFTFGMPINHETFGVHVEKADTSIDGAYAMINYEFANRIPEQYIYINREEDLGIEGLRKAKLSYQPVTILEKYMACLKDHPMDMVRW	not failed
MIPLSESFESGIPAIWKTIDADGDGYNWMHLTNFTGQSGLCVSSASYIGGVGALTPDNYLITPELKLPTDALVEIIYWVCTQDLTAPSEHYAVYSSSTGNNAADFVNLLYEETLTAKRIQSPELIRGNRTQGVWYQRKVVLPNDTKYVAFRHFNSTDNFWLNLDEVSILYTPLPRRA	not failed
